# B1: 1F10: murine anti-human EpCAM monoclonal antibody (IgG1, λ1), hybridoma m338-1F10.3; VH SEQ ID NO:11, VL SEQ ID NO:13 (antibody, listed as Mus musculus, V domains shown)
# VH: EVKLLESGGGLVQPGGSLKLSCAASGFDFSRYWMSWVRQAPGKGLEWIGEINPDSSTMNYTPSLKDKFIISRDNAKNTLYLQMSKVRSEDTALYYCARGAYAMDYWGQGTSVTVSS
# VL: QAVVTQESALTTSPGETVTLTCRSSTGAVTTSNNANWVQEKPDHLFTGLIGATNNRAPGVPARFSGSLIGDKAALTITGAQTEDEAIYFCALWYINHWVFGGGTKLTVLG
# B2: 1G10: murine anti-human EpCAM monoclonal antibody (IgG1, K), hybridoma m290-1G10; VH SEQ ID NO:7, VL SEQ ID NO:9 (antibody, listed as Mus musculus, V domains shown)
# VH: QIQLVQSGPELKKPGETVKISCKASGYTFTNYGMNWVKQAPGKGFKWMGWINTYTGEPTYADDFKGRFAFSLETSASTAYLQINNLQNEDMATYFCARWGYDFDYWGQGTTLTVSS
# VL: QIVLTQSPAIMSSSPGEKVTMTCSASSSISYMNWYQQKPGTSPKRWIYDTSKLASGVPARFSGSGSGTSYSLTISSMEAEDAATYYCHQRSSYPYTFGGGTKLEIKR
# Legend:
# [1] = system: NCI-H358 lung cancer cells; test: Cell death in NCI-H358 lung cancer cells (Annexin V + PI); type: cell-based, human; details: mAb 10 μg/ml, 17 hr; for % of Annexin V + PI staining (untreated background subtracted), Mean ± SEM: mean of 5 experiments
# Experimental: (§1) 5×10^4 NCI-H358 cells were seeded to each well of a 96-well plate, and then 10 μg/ml of anti-EpCAM or control (9E10) mAbs diluted in the medium was added into the cells. After a 17-hr incubation at 37° C., the cells were stained with 0.3 μl of FITC-conjugated Annexin V (Strong Biotech Corp. Cat. No. AVK250) in 50 μl Annexin V binding buffer (Strong Biotech Corp. Cat. No. AVK250) at RT for 20 min. After wash, the cells were then stained with 0.3 μl of propidium iodide in 200 μl Annexin V binding buffer. Annexin V and Propidium Iodide were used as a joint indicator for measuring cell death. The data were acquired with BD FACSCalibur based on an acquisition of 3,000-5,000 cells and analyzed with the Cell Quest software. The combined percentages of the Annexin V+/PI+, Annexin V+/PI− and Annexin V−/PI+populations were considered as dead cells.
# [2] = system: Lung cancer NCI-H520 cells; test: Antibody cytotoxicity assay (Annexin V + PI), NCI-H520; type: cell-based; details: for Induction of cell death (in words): 1, 3 and 10 μg/ml, overnight; for Cytotoxic effect (Annexin V + PI staining, dead cells): 17-20 hr
# Experimental: as §1, with “After” for “5×10^4 NCI-H358 cells were seeded to each well of a 96-well plate, and then 10 μg/ml of anti-EpCAM or control (9E10) mAbs diluted in the medium was added into the cells. After”, “17-20 hr” for “17-hr”, “C.,” for “C., the”, “for” for “for measuring”
# CHO parental cells = test: FACS binding of anti-EpCAM antibodies to CHO parental cells; set-up: species or system Chinese hamster; details: antibody 0.1 μg/ml; HPS at 300x dilution
# Experimental: 1×10^5 CHO/EpCAM or CHO parental cells were seeded in each well of a v-bottomed 96-well plate and incubated with purified anti-EpCAM antibodies or mouse IgG control antibody 9E10 at concentration of 0.1 μg/ml. A 300× dilution of human cell hyper-immune serum (HPS 300×) was used as binding positive control for both cell lines here. After 1 hr incubation at 4° C., cells were washed twice with 200 μl FACS buffer (1×PBS containing 1% FBS), stained with 100 μl of 1 μg/ml goat-anti-mouse IgG-PE (Southern Biotech, Cat. No. 1032-09) in FACS buffer and then incubated at 4° C. for 30 min. Cells were washed thrice with FACS buffer and analyzed by flow cytometry (BD LSR, BD Life Sciences).
# [3] = system: Pharynx cancer FaDu cells; test: Antibody cytotoxicity assay (Annexin V + PI), FaDu; type: cell-based; details: for Induction of cell death (in words): 1, 3 and 10 μg/ml, overnight; for Cytotoxic effect (Annexin V + PI staining, dead cells): 17-20 hr
# Experimental: as §1, with “After” for “5×10^4 NCI-H358 cells were seeded to each well of a 96-well plate, and then 10 μg/ml of anti-EpCAM or control (9E10) mAbs diluted in the medium was added into the cells. After”, “17-20 hr” for “17-hr”, “C.,” for “C., the”, “for” for “for measuring”
# [4] = system: COLO 205 colon cancer cells; test: Cytotoxicity of anti-EpCAM antibodies in combination with oxaliplatin in COLO 205; type: cell-based, human; details: 24 hr
# Experimental: as §1, with “Oxaliplatin, combined with infusional administration of 2 other chemotherapy drugs, 5-fluorouracil/leucovorin (5-FU/LV), is now considered as one of the as first-line treatments for people with advanced carcinoma of the colon or rectum (André et al. (2004) N Engl J Med 350(23):2343-2351). To test the cytotoxicity of anti-EpCAM antibodies in the presence of oxaliplatin, 1×10^5 COLO 205 cells” for “5×10^4 NCI-H358 cells”, “then 0.03, 0.3 and 3” for “then 10”, “mAbs in combination with oxaliplatin at concentration of 0, 0.01, 0.1, and 1 μg/ml” for “mAbs”, “medium were” for “medium was”, “a 24-hr” for “a 17-hr”
# [5] = system: Gastric cancer NCI-N87 cells; test: Antibody cytotoxicity assay (Annexin V + PI), NCI-N87; type: cell-based; details: for Induction of cell death (in words): 1, 3 and 10 μg/ml, overnight; for Cytotoxic effect (Annexin V + PI staining, dead cells): 17-20 hr
# Experimental: as §1, with “After” for “5×10^4 NCI-H358 cells were seeded to each well of a 96-well plate, and then 10 μg/ml of anti-EpCAM or control (9E10) mAbs diluted in the medium was added into the cells. After”, “17-20 hr” for “17-hr”, “C.,” for “C., the”, “for” for “for measuring”
# [6] = mAb 0.03 μg/ml, oxaliplatin 0 μg/ml
# [7] = mAb 0.3 μg/ml + oxaliplatin 1 μg/ml
# [8] = mAb 0.3 μg/ml, oxaliplatin 0 μg/ml
# [9] = mAb 3 μg/ml + oxaliplatin 0.01 μg/ml
# [10] = mAb 3 μg/ml + oxaliplatin 1 μg/ml
# [11] = mAb 3 μg/ml, oxaliplatin 0 μg/ml
molecule,measurement,setting,value
B1,% of Annexin V + PI staining (untreated background subtracted),[1]; Exp1,32%
same,% of Annexin V + PI staining (untreated background subtracted),[1]; Exp2,30%
same,% of Annexin V + PI staining (untreated background subtracted),[1]; Exp3,40%
same,% of Annexin V + PI staining (untreated background subtracted),[1]; Exp4,39%
same,% of Annexin V + PI staining (untreated background subtracted),[1]; Exp5,37%
same,"% of Annexin V + PI staining (untreated background subtracted), Mean ± SEM",[1],35.6 ± 2.0%
same,Induction of cell death (in words),[2],substantial cell death
same,"Cytotoxic effect (Annexin V + PI staining, dead cells)",[2]; mAb 1.0 μg/ml,40%
same,"Cytotoxic effect (Annexin V + PI staining, dead cells)",[2]; mAb 3.0 μg/ml,46%
same,"Cytotoxic effect (Annexin V + PI staining, dead cells)",[2]; mAb 10 μg/ml,57%
same,"Binding (FACS, Mean fluorescence intensity (MFI)) CHO",CHO parental cells,6
same,Induction of cell death (in words),[3],substantial cell death
same,"Cytotoxic effect (Annexin V + PI staining, dead cells)",[3]; mAb 1.0 μg/ml,44%
same,"Cytotoxic effect (Annexin V + PI staining, dead cells)",[3]; mAb 3.0 μg/ml,42%
same,"Cytotoxic effect (Annexin V + PI staining, dead cells)",[3]; mAb 10 μg/ml,45%
same,% of Annexin V + PI staining (untreated background subtracted),[4]; mAb 0.03 μg/ml + oxaliplatin 0.01 μg/ml,−1%
same,% of Annexin V + PI staining (untreated background subtracted),[4]; mAb 0.03 μg/ml + oxaliplatin 1 μg/ml,5%
same,% of Annexin V + PI staining (untreated background subtracted),[4]; [6],−1%
same,% of Annexin V + PI staining (untreated background subtracted),[4]; [7],22%
same,% of Annexin V + PI staining (untreated background subtracted),[4]; [8],6%
same,% of Annexin V + PI staining (untreated background subtracted),[4]; [9],52%
same,% of Annexin V + PI staining (untreated background subtracted),[4]; mAb 3 μg/ml + oxaliplatin 0.1 μg/ml,57%
same,% of Annexin V + PI staining (untreated background subtracted),[4]; [10],61%
same,% of Annexin V + PI staining (untreated background subtracted),[4]; [11],54%
same,Induction of cell death (in words),[5],substantial cell death
same,"Cytotoxic effect (Annexin V + PI staining, dead cells)",[5]; mAb 1.0 μg/ml,57%
same,"Cytotoxic effect (Annexin V + PI staining, dead cells)",[5]; mAb 3.0 μg/ml,57%
same,"Cytotoxic effect (Annexin V + PI staining, dead cells)",[5]; mAb 10 μg/ml,57%
B2,% of Annexin V + PI staining (untreated background subtracted),[1]; Exp1,46%
same,% of Annexin V + PI staining (untreated background subtracted),[1]; Exp2,42%
same,% of Annexin V + PI staining (untreated background subtracted),[1]; Exp3,48%
same,% of Annexin V + PI staining (untreated background subtracted),[1]; Exp4,47%
same,% of Annexin V + PI staining (untreated background subtracted),[1]; Exp5,42%
same,"% of Annexin V + PI staining (untreated background subtracted), Mean ± SEM",[1],45.0 ± 1.3%
same,Induction of cell death (in words),[2],substantial cell death
same,"Cytotoxic effect (Annexin V + PI staining, dead cells)",[2]; mAb 1.0 μg/ml,32%
same,"Cytotoxic effect (Annexin V + PI staining, dead cells)",[2]; mAb 3.0 μg/ml,41%
same,"Cytotoxic effect (Annexin V + PI staining, dead cells)",[2]; mAb 10 μg/ml,55%
same,"Binding (FACS, Mean fluorescence intensity (MFI)) CHO",CHO parental cells,5
same,Induction of cell death (in words),[3],substantial cell death
same,"Cytotoxic effect (Annexin V + PI staining, dead cells)",[3]; mAb 1.0 μg/ml,40%
same,"Cytotoxic effect (Annexin V + PI staining, dead cells)",[3]; mAb 3.0 μg/ml,50%
same,"Cytotoxic effect (Annexin V + PI staining, dead cells)",[3]; mAb 10 μg/ml,51%
same,% of Annexin V + PI staining (untreated background subtracted),[4]; mAb 0.03 μg/ml + oxaliplatin 0.1 μg/ml,2%
same,% of Annexin V + PI staining (untreated background subtracted),[4]; [6],2%
same,% of Annexin V + PI staining (untreated background subtracted),[4]; mAb 0.3 μg/ml + oxaliplatin 0.01 μg/ml,4%
same,% of Annexin V + PI staining (untreated background subtracted),[4]; mAb 0.3 μg/ml + oxaliplatin 0.1 μg/ml,5%
same,% of Annexin V + PI staining (untreated background subtracted),[4]; [7],10%
same,% of Annexin V + PI staining (untreated background subtracted),[4]; [8],5%
same,% of Annexin V + PI staining (untreated background subtracted),[4]; [9],38%
same,% of Annexin V + PI staining (untreated background subtracted),[4]; [10],54%
same,% of Annexin V + PI staining (untreated background subtracted),[4]; [11],46%
same,Induction of cell death (in words),[5],substantial cell death
same,"Cytotoxic effect (Annexin V + PI staining, dead cells)",[5]; mAb 1.0 μg/ml,50%
same,"Cytotoxic effect (Annexin V + PI staining, dead cells)",[5]; mAb 3.0 μg/ml,60%
same,"Cytotoxic effect (Annexin V + PI staining, dead cells)",[5]; mAb 10 μg/ml,60%

# Source: US20110165161A1, “ANTI-EPCAM ANTIBODIES THAT INDUCE APOPTOSIS OF CANCER CELLS AND METHODS USING SAME” (priority 2009, published 2011)
